Measurements reported in the supplement of paper PMC5998384.

Tests used:
[1] = test system: HeLa Kyoto; test: solubility change mitosis vs G1/S (difference of NP-40 vs SDS log2 ratios) (log2 ratio difference); higher = more soluble in mitosis
[2] = test system: HeLa Kyoto; test: solubility in G1/S (NP-40 vs SDS abundance) (log2 ratio); higher = more soluble; details: cell cycle stage: G1/S
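For solubility change mitosis vs G1/S (difference of NP-40 vs SDS log2 ratios) in this document: synchronized HeLa Kyoto cells (double thymidine block for G1/S, nocodazole release for mitosis), protein amounts in NP-40 versus SDS lysates quantified by mass spectrometry, three biological replicates.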
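For solubility in G1/S (NP-40 vs SDS abundance) in this document: HeLa Kyoto cells arrested at G1/S by double thymidine block, proteins quantified by TMT10plex mass spectrometry in mild NP-40 versus SDS extracts, three biological replicates.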

CSNK1G1, sequence (chain, as listed by the source): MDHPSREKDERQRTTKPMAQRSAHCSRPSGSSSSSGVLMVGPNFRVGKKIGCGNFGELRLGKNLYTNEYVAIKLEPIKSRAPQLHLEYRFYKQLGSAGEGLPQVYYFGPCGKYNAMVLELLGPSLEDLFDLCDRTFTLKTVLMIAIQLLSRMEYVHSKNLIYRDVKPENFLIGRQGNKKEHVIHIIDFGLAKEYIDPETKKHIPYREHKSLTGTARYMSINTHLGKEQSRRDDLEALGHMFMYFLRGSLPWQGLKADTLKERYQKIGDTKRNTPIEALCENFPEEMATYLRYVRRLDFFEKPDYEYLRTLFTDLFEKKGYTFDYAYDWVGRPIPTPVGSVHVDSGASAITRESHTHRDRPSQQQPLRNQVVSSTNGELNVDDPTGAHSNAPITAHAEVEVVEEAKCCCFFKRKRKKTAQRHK
INPP5B, sequence (chain, as listed by the source): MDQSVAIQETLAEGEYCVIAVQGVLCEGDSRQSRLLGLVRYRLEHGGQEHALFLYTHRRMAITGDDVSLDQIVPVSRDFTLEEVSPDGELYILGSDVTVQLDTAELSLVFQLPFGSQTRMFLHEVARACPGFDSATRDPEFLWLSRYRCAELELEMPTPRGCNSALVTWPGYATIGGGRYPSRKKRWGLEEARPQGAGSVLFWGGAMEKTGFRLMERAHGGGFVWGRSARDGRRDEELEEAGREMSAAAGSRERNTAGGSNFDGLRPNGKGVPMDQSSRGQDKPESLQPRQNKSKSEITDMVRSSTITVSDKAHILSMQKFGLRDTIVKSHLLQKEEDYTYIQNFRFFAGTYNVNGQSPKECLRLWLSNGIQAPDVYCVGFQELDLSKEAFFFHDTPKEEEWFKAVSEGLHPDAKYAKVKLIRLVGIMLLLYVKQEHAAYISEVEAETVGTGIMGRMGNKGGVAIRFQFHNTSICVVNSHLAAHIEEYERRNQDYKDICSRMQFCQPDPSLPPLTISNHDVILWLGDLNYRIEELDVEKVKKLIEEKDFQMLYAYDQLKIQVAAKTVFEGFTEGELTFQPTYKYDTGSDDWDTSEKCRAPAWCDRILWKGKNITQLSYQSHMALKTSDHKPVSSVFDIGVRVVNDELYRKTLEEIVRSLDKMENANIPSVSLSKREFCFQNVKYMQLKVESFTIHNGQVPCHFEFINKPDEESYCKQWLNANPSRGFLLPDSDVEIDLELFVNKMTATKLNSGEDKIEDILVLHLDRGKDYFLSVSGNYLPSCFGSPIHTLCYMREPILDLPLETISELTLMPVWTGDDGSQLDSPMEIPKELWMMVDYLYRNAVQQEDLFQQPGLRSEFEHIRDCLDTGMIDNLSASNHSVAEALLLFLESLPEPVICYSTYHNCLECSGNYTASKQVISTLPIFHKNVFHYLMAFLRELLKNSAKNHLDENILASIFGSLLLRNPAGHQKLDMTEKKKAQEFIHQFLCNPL
MBD4, sequence (chain, as listed by the source): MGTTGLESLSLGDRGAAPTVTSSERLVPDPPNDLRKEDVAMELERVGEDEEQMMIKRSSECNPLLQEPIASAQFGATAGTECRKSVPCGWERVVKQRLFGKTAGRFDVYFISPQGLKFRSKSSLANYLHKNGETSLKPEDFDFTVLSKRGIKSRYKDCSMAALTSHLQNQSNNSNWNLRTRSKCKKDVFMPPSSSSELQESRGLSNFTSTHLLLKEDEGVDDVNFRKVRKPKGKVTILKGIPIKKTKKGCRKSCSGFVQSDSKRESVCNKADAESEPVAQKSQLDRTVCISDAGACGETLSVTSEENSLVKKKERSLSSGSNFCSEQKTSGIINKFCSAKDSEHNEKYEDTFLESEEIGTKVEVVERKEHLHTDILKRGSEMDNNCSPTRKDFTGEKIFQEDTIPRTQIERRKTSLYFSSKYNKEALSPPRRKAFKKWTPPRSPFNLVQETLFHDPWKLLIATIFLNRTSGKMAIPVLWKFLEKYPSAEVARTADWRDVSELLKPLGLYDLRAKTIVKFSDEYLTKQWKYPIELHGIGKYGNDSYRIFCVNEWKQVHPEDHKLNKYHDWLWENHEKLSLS

Substance	solubility change mitosis (log2) [1]	solubility in G1/S (log2) [2]
METSSMLSSLNDECKSDNYIEPHYKEWYRVAIDILIEHGLEAYQEFLVQERVSDFLAEEEINYILKNVQKVAQSTAHGTDDSCDDTLSSGTYWPVESDVEAPNLDLGWPYVMPGLLGGTHIDLLFHPPRAHLLTIKETIRKMIKEARKVIALVMDIFTDVDIFKEIVEASTRGVSVYILLDESNFNHFLNMTEKQGCSVQRLRNIRVRTVKGQDYLSKTGAKFHGKMEQKFLLVDCQKVMYGSYSYMWSFEKAHLSMVQIITGQLVESFDEEFRTLYARSCVPSSFAQEESARVKHGKALWENGTYQHSVSSLASVSSQRNLFGRQDKIHKLDSSYFKNRGIYTLNEHDKYNIRSHGYKPHFVPNFNGPNAIRQFQPNQINENWKRHSYAGEQPETVPYLLLNRALNRTNNPPGNWKKPSDSLSVASSSREGYVSHHNTPAQSFANRLAQRKTTNLADRNSNVRRSFNGTDNHIRFLQQRMPTLEHTTKSFLRNWRIESYLNDHSEATPDSNGSALGDRFEGYDNPENLKANALYTHSRLRSSLVFKPTLPEQKEVNSCTTGSSNSTIIGSQGSETPKEVPDTPTNVQHLTDKPLPESIPKLPLQSEAPKMHTLQVPENHSVALNQTTNGHTESNNYIYKTLGVNKQTENLKNQQTENLLKRRSFPLFDNSKANLDPGNSKHYVYSTLTRNRVRQPEKPKEDLLKSSKSMHNVTHNLEEDEEEVTKRNSPSGTTTKSVSIAALLDVNKEESNKELASKKEVKGSPSFLKKGSQKLRSLLSLTPDKKENLSKNKAPAFYRLCSSSDTLVSEGEENQKPKKSDTKVDSSPRRKHSSSSNSQGSIHKSKEDVTVSPSQEINAPPDENKRTPSPGPVESKFLERAGDASAPRFNTEQIQYRDSREINAVVTPERRPTSSPRPTSSELLRSHSTDRRVYSRFEPFCKIESSIQPTSNMPNTSINRPEIKSATMGNSYGRSSPLLNYNTGVYRSYQPNENKFRGFMQKFGNFIHKNK [FAM83B]	0.383	-1.47
CSNK1G1	0.0486	-0.3
MGSKERFHWQSHNVKQSGVDDMVLLPQITEDAIAANLRKRFMDDYIFTYIGSVLISVNPFKQMPYFTDREIDLYQGAAQYENPPHIYALTDNMYRNMLIDCENQCVIISGESGAGKTVAAKYIMGYISKVSGGGEKVQHVKDIILQSNPLLEAFGNAKTVRNNNSSRFGKYFEIQFSRGGEPDGGKISNFLLEKSRVVMQNENERNFHIYYQLLEGASQEQRQNLGLMTPDYYYYLNQSDTYQVDGTDDRSDFGETLSAMQVIGIPPSIQQLVLQLVAGILHLGNISFCEDGNYARVESVDLLAFPAYLLGIDSGRLQEKLTSRKMDSRWGGRSESINVTLNVEQAAYTRDALAKGLYARLFDFLVEAINRAMQKPQEEYSIGVLDIYGFEIFQKNGFEQFCINFVNEKLQQIFIELTLKAEQEEYVQEGIRWTPIQYFNNKVVCDLIENKLSPPGIMSVLDDVCATMHATGGGADQTLLQKLQAAVGTHEHFNSWSAGFVIHHYAGKVSYDVSGFCERNRDVLFSDLIELMQTSEQAFLRMLFPEKLDGDKKGRPSTAGSKIKKQANDLVATLMRCTPHYIRCIKPNETKRPRDWEENRVKHQVEYLGLKENIRVRRAGFAYRRQFAKFLQRYAILTPETWPRWRGDERQGVQHLLRAVNMEPDQYQMGSTKVFVKNPESLFLLEEVRERKFDGFARTIQKAWRRHVAVRKYEEMREEASNILLNKKERRRNSINRNFVGDYLGLEERPELRQFLGKRERVDFADSVTKYDRRFKPIKRDLILTPKCVYVIGREKVKKGPEKGQVCEVLKKKVDIQALRGVSLSTRQDDFFILQEDAADSFLESVFKTEFVSLLCKRFEEATRRPLPLTFSDTLQFRVKKEGWGGGGTRSVTFSRGFGDLAVLKVGGRTLTVSVGDGLPKSSKPTRKGMAKGKPRRSSQAPTRAAPAPPRGMDRNGVPPSARGGPLPLEIMSGGGTHRPPRGPPSTSLGASRRPRARPPSEHNTEFLNVPDQGMAGMQRKRSVGQRPVPGVGRPKPQPRTHGPRCRALYQYVGQDVDELSFNVNEVIEILMEDPSGWWKGRLHGQEGLFPGNYVEKI [MYO1F]	-0.173	-0.1
MEEPEEPADSGQSLVPVYIYSPEYVSMCDSLAKIPKRASMVHSLIEAYALHKQMRIVKPKVASMEEMATFHTDAYLQHLQKVSQEGDDDHPDSIEYGLGYDCPATEGIFDYAAAIGGATITAAQCLIDGMCKVAINWSGGWHHAKKDEASGFCYLNDAVLGILRLRRKFERILYVDLDLHHGDGVEDAFSFTSKVMTVSLHKFSPGFFPGTGDVSDVGLGKGRYYSVNVPIQDGIQDEKYYQICESVLKEVYQAFNPKAVVLQLGADTIAGDPMCSFNMTPVGIGKCLKYILQWQLATLILGGGGYNLANTARCWTYLTGVILGKTLSSEIPDHEFFTAYGPDYVLEITPSCRPDRNEPHRIQQILNYIKGNLKHVV [HDAC8]	-0.213	0.168
MASVSSATFSGHGARSLLQFLRLVGQLKRVPRTGWVYRNVQRPESVSDHMYRMAVMAMVIKDDRLNKDRCVRLALVHDMAECIVGDIAPADNIPKEEKHRREEEAMKQITQLLPEDLRKELYELWEEYETQSSAEAKFVKQLDQCEMILQASEYEDLEHKPGRLQDFYDSTAGKFNHPEIVQLVSELEAERSTNIAAAASEPHS [HDDC2]	0.118	0.452
NUFIP1	0.162	-0.519
MEEFDLVKTLHKTSSSVGSDENSLHSLGLNLNTDRSSPHLSTNGVSSFSGKTRPSVIQGTVEVLTSLMQELQNSGKTDSELWKNCETRWLQLFNLVEKQCQEQIVAQQEQFHNQIQHIQEEIKNLVKLQTSSASLASCEGNSSNKQVSSESQMGFFSLSSERNESVIHYPESTEPEIQQEMSTSQPDCNVDSCSVSSGYGTFCISELNLYKSKDPKEFMEHIDVPKGQYVAPAVPAESLVDGVKNENFYIQTPEECHVSLKEDVSISPGEFEHNFLGENKVSEVYSGKTNSNAITSWAQKLKQNQPKRAHVEDGGSRSKQGNEQSKKTPIEKSDFAAATHPRAFYLSKPDETPNAWMSDSGTGLTYWKLEEKDMHHSLPETLEKTFISLSSTDVSPNQSNTSNEMKLPSLKDIYYKKQRENKQLPERNLTSASNPNHPPEVLTLDPTLHMKPKQQISGIQPHGLPNALDDRISFSPDSVLEPSMSSPSDIDSFSQASNVTSQLPGFPKYPSHTKASPVDSWKNQTFQNESRTSSTFPSVYTITSNDISVNTVDEENTVMVASASVSQSQLPGTANSVPECISLTSLEDPVILSKIRQNLKEKHARHIADLRAYYESEINSLKQKLEAKEISGVEDWKITNQILVDRCGQLDSALHEATSRVRTLENKNNLLEIEVNDLRERFSAASSASKILQERIEEMRTSSKEKDNTIIRLKSRLQDLEEAFENAYKLSDDKEAQLKQENKMFQDLLGEYESLGKEHRRVKDALNTTENKLLDAYTQISDLKRMISKLEAQVKQVEHENMLSLRHNSRIHVRPSRANTLATSDVSRRKWLIPGAEYSIFTGQPLDTQDSNVDNQLEETCSLGHRSPLEKDSSPGSSSTSLLIKKQRETSDTPIMRALKELDEGKIFKNWGTQTEKEDTSNINPRQTETSVNASRSPEKCAQQRQKRLNSASQRSSSLPPSNRKSSTPTKREIMLTPVTVAYSPKRSPKENLSPGFSHLLSKNESSPIRFDILLDDLDTVPVSTLQRTNPRKQLQFLPLDDSEEKTYSEKATDNHVNHSSCPEPVPNGVKKVSVRTAWEKNKSVSYEQCKPVSVTPQGNDFEYTAKIRTLAETERFFDELTKEKDQIEAALSRMPSPGGRITLQTRLNQEALEDRLERINRELGSVRMTLKKFHVLRTSANL [MPHOSPH9]	0.149	-0.0212
INPP5B	-0.0113	-0.143
MDPPAVVAESVSSLTIADAFIAAGESSAPTPPRPALPRRFICSFPDCSANYSKAWKLDAHLCKHTGERPFVCDYEGCGKAFIRDYHLSRHILTHTGEKPFVCAANGCDQKFNTKSNLKKHFERKHENQQKQYICSFEDCKKTFKKHQQLKIHQCQHTNEPLFKCTQEGCGKHFASPSKLKRHAKAHEGYVCQKGCSFVAKTWTELLKHVRETHKEEILCEVCRKTFKRKDYLKQHMKTHAPERDVCRCPREGCGRTYTTVFNLQSHILSFHEESRPFVCEHAGCGKTFAMKQSLTRHAVVHDPDKKKMKLKVKKSREKRSLASHLSGYIPPKRKQGQGLSLCQNGESPNCVEDKMLSTVAVLTLG [GTF3A]	0.0516	-0.869
MASVRIREAKEGDCGDILRLIRELAEFEKLSDQVKISEEALRADGFGDNPFYHCLVAEILPAPGKLLGPCVVGYGIYYFIYSTWKGRTIYLEDIYVMPEYRGQGIGSKIIKKVAEVALDKGCSQFRLAVLDWNQRAMDLYKALGAQDLTEAEGWHFFCFQGEATRKLAGK [SAT2]	-0.259	0.139
MEGRSAAAETFVWVNNASAHSQSVAKAKYEFLFGRSEGKAPDTSDHGGSTLLPPNVTNEFPEYGTMEEGGEGLRASLEFDGEALPCHPQEQQGVQPLTGCHSGLDSVTEGPKDVREAPSQSHLKEQSLQPIDSLISALKATEARIISGTLQATKVLDQDAVSSFSVQQVEKELDTASRKTQRVNKTLPAGQKNLPEIPLSAEVTTEESFYLSIQKDLTALLTGDTQAEISQIMNNGRKGAVCVQEPSCPLASLGSSAVTCHSAGSVGFLKEQRSALGREHPGGCDRSSSMGRPGRVKHVEFQGVEILWTGGDKRETQHPIDFETSLQRTASPDSKESSKVPRHLISSAGLCNSSSLTENVWDESWKAPSERPGTSSGTFSPVRLDESGEDEVFLQENKQHLEKTPKPERDRERISEQEEHVKGEDEDILGPGYTEDSTDVYSSQFETILDNTSLYYSAESLETLYSEPDSYFSFEMPLTPMIQQRIKEGGQFLERTSGGGHQDILSVSADGGIVMGYSSGVTNGLNDASDSIYTKGTPEIAFWGSNAGVKTTRLEAHSEMGSTEILEKETPENLSNGTSSNVEAAKRLAKRLYQLDRFKRSDVAKHLGKNNEFSKLVAEEYLKFFDFTGMTLDQSLRYFFKAFSLVGETQERERVLIHFSNRYFYCNPDTIASQDGVHCLTCAIMLLNTDLHGHVNIGKKMTCQEFIANLQGVNEGVDFSKDLLKALYNSIKNEKLEWAVDDEEKKKSPSESTEEKANGTHPKTISRIGSTTNPFLDIPHDPNAAVYKSGFLARKIHADMDGKKTPRGKRGWKTFYAVLKGTVLYLQKDEYKPEKALSEEDLKNAVSVHHALASKATDYEKKPNVFKLKTADWRVLLFQTQSPEEMQGWINKINCVAAVFSAPPFPAAIGSQKKFSRPLLPATTTKLSQEEQLKSHESKLKQITTELAEHRSYPPDKKVKAKDVDEYKLKDHYLEFEKTRYEMYVSILKEGGKELLSNDESEAAGLKKSHSSPSLNPDTSPITAKVKRNVSERKDHRPETPSIKQKVT [PSD3]	-0.00479	-0.107
MAGYLKLVCVSFQRQGFHTVGSRCKNRTGAEHLWLTRHLRDPFVKAAKVESYRCRSAFKLLEVNERHQILRPGLRVLDCGAAPGAWSQVAVQKVNAAGTDPSSPVGFVLGVDLLHIFPLEGATFLCPADVTDPRTSQRILEVLPGRRADVILSDMAPNATGFRDLDHDRLISLCLTLLSVTPDILQPGGTFLCKTWAGSQSRRLQRRLTEEFQNVRIIKPEASRKESSEVYFLATQYHGRKGTVKQ [FTSJ2]	0.0979	0.00974
MBD4	0.427	-0.669
